The target in one assay is Pol I (Bacillus subtilis, UniProt O34996). The settings on record: 0.15 M KCl; cited from earlier work.
A further assay relates to Pol II. Conditions: 0.15 M KCl; cited from earlier work.
The next assay deals with Pol III-L (Bacillus subtilis, UniProt P13267). Conditions: Pol III-L, 0.15 M KCl; cited from earlier work.
Assay [1] has as its target Escherichia coli DNA polymerase III core (Escherichia coli) (UniProt P10443). Briefly: cell-based or functional assay.
Assay [2] concerns the target Staphylococcus aureus Pol III-L (α-large, polC gene product) (Staphylococcus aureus) (UniProt P0C1P9). The assay is described as follows: cell-based or functional assay.
Assay [3] relates to singly primed M13mp18 ssDNA. The assay is described as follows: Time course of primer extension on singly primed M13mp18 ssDNA, DnaE polymerase. It is filed as biochemical. The settings on record: saturating concentration of DnaE. The procedure: The S. pyogenes DnaE (α-small) polymerase is more homologous to E. coli a than S. pyogenes PolC. Thus, it seems reasonable to expect that the DnaE polymerase may also function with the β clamp (FIGS. 21A-B). To test DnaE for function with τδδ′ and β, replication reactions contained 70 ng (25 fmol) of 30-mer singly primed M13 mp18 ssDNA, 0.82 μg of S. pyogenes SSB, and 3.3 ng-300 ng of DnaE (25 fmol −2.3 pmol) in 23.5 μl of 20 mM Tris-HCl (pH 7.5), 4% glycerol, 0.1 mM EDTA, 5 mM dithiothreitol (DTT), 40 μg/ml BSA, 2 mM ATP, 8 mM MgCl2, and 60 μM each of dGTP and dCTP. When present, reactions included 43.3 ng of β and 10 ng of τδδ′. Reactions were preincubated for 3 min at 37° C., and then NaCl was added to 40 mM followed by another 2 min at 37° C. DNA synthesis was initiated upon addition of 1.5 μl of 1.5 mM dATP, 0.5 mM [α^32P]-dTTP (specific activity 2,000-4,000 cpm/pmol). Aliquots of 25 μl were removed at the indicated times and quenched with an equal volume (25 μl) of 1% SDS, 40 mM EDTA. One-half of the quenched reaction was analyzed for total deoxynucleotide incorporation using DE81 filter paper and the other half was analyzed on a 0.8% neutral agarose gel. The effect of TMAU was also examined, in which 100 μM TMAU in DMSO (2% DMSO final concentration) was present. In this case, replication was allowed to proceed for 1 min before being quenched with […] of 1% SDS, 40 mM EDTA. […]

Where “and” joins values, the source holds several entries; their conditions need not be identical. Equal entries are not always repeated.

Here are results for four molecules from patent publication US7432365B1, “DNA molecules encoding beta clamp proteins of gram positive bacteria” (priority 1998, dated 2008).

Sequence of Staphylococcus aureus Pol III-L (α-large, polC gene product) (Staphylococcus aureus) (P0C1P9 whole entry): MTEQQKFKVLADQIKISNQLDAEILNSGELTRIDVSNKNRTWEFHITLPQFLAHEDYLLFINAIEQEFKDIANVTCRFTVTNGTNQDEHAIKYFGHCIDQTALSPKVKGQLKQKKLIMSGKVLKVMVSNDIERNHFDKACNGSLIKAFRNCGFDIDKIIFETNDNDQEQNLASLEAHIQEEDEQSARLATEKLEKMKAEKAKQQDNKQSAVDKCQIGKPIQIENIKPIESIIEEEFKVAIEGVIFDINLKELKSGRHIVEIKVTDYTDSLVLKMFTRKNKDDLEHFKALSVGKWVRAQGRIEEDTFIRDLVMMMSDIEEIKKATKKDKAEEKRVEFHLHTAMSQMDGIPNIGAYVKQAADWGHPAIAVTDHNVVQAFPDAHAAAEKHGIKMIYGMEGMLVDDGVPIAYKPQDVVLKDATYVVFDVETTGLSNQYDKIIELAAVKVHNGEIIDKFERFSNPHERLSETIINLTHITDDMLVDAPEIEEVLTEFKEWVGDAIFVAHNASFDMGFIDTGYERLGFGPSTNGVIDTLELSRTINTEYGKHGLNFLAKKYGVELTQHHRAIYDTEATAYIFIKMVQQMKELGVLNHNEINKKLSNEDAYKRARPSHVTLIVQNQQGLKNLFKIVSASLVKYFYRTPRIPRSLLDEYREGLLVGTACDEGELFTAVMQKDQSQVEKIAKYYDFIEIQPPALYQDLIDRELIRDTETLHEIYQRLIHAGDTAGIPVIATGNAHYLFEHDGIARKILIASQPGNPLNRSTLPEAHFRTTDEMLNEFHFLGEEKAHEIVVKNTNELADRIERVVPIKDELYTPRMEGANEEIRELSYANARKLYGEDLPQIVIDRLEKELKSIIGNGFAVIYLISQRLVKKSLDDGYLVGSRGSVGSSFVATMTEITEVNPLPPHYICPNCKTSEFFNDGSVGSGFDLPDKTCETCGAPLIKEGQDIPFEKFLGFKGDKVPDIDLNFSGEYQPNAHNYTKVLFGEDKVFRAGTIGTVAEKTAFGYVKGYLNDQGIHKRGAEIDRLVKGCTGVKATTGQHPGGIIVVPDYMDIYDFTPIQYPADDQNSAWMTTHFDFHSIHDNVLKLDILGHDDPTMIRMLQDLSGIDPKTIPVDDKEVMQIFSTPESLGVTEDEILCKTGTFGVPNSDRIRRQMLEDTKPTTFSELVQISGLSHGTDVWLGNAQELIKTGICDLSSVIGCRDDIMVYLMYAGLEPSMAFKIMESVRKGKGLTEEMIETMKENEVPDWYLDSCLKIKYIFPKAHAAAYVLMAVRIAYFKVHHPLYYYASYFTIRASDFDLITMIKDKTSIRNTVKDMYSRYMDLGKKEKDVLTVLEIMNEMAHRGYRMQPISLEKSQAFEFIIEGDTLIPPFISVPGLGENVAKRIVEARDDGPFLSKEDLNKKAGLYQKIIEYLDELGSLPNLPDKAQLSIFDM
Sequence of Escherichia coli DNA polymerase III core (Escherichia coli) (P10443 whole entry, chain 1 of 3): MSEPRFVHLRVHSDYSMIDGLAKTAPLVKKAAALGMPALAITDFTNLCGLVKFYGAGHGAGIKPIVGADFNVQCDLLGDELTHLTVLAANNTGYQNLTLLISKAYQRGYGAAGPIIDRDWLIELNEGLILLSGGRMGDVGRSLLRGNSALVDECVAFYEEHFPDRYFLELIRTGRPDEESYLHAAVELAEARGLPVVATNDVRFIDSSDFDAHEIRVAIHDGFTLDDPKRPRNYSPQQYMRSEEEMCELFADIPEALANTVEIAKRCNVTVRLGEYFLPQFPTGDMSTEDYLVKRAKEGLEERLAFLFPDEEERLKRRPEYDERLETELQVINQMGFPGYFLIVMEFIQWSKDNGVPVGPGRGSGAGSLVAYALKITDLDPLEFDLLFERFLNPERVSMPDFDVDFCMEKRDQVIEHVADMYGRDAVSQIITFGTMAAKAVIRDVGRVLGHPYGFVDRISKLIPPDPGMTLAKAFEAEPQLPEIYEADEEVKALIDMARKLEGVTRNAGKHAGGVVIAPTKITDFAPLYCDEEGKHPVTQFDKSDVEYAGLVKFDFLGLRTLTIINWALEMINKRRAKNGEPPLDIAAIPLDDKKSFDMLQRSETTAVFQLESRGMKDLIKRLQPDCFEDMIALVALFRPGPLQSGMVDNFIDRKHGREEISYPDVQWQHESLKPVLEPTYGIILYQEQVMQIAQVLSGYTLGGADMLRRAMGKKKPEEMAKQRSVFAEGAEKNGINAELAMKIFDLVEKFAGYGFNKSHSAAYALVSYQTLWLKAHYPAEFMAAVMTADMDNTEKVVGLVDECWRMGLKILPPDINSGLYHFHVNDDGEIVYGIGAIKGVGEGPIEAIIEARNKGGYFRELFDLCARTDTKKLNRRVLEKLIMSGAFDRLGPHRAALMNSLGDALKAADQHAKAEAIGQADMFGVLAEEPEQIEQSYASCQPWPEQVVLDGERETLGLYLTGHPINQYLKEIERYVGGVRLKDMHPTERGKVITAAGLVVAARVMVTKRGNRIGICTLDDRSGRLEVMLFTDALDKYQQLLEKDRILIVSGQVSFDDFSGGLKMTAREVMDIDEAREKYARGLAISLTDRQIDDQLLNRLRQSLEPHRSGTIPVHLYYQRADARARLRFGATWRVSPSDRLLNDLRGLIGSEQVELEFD
Sequence of Escherichia coli DNA polymerase III core (Escherichia coli) (P03007 whole entry, chain 2 of 3, further chain): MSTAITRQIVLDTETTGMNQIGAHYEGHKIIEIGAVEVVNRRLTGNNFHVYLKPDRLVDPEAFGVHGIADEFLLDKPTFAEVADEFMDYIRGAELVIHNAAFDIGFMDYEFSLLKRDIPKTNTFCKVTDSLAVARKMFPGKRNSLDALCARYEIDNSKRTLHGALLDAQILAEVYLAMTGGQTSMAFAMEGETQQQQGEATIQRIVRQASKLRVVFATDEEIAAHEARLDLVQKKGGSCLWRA
Sequence of Escherichia coli DNA polymerase III core (Escherichia coli) (P0ABS8 whole entry, chain 3 of 3, further chain): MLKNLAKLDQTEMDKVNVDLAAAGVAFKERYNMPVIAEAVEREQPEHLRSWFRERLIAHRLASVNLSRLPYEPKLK
Sequence of Pol I (O34996 whole entry): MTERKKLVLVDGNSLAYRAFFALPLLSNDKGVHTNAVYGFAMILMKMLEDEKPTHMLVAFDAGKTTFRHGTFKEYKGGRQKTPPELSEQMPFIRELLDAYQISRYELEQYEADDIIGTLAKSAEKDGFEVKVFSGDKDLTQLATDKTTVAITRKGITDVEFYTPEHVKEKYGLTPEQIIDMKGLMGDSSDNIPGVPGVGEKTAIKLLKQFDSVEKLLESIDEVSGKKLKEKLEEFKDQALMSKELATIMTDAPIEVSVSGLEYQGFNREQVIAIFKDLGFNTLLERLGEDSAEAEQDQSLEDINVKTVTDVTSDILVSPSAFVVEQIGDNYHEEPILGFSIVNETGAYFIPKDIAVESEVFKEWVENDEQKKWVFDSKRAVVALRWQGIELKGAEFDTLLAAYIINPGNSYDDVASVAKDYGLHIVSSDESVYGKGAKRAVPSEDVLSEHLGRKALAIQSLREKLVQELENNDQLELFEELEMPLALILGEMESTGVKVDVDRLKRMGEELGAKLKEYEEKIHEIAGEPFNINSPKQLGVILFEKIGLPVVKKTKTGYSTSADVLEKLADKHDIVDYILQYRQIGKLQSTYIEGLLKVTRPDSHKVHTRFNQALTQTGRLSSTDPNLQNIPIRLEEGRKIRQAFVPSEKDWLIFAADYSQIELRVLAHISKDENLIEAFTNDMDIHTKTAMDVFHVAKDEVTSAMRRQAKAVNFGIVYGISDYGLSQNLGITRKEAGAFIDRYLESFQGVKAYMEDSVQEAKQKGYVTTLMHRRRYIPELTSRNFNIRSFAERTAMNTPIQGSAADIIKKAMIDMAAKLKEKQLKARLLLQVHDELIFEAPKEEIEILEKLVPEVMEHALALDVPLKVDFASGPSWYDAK

Regarding `[Cl-].[K+]` [KCl], the “Expected characteristics: inhibition by 0.15 M KCl” value at Pol I, with Pol II and on Pol III-L was “not inhibited (Not inhibited is defined as greater than 75% remaining activity)” throughout.

Turning to “Escherichia coli beta subunit of DNA polymerase III holoenzyme (from UniProt P0A988 1-366)”, in assay [1], the Total DNA synthesis on polydA-oligodT, lane 6 (E. coli Pol III core with E. coli beta; lane 5 without beta 0.97 pmol) worked out at 28.1 pmol and the stimulation of DNA synthesis by E. coli core on linear polydA-oligodT is over 10 fold.

B1: Staphylococcus aureus beta subunit (dnaN gene product) (protein)
chain: MMEFTIKRDYFITQLNDTLKAISPRTTLPILTGIKIDAKEHEVILTGSDSEISIEITIPKTVDGEDIVNISETGSVVLPGRFFVDIIKKLPGKDVKLSTNEQFQTLITSGHSEFNLSGLDPDQYPLLPQVSRDDAIQLSVKVLKNVIAQTNFAVSTSETRPVLTGVNWLIQENELICTATDSHRLAVRKLQLEDVSENKNVIIPGKALAELNKIMSDNEEDIDIFFASNQVLFKVGNVNFISRLLEGHYPDTTRLFPENYEIKLSIDNGEFYHAIDRASLLAREGGNNVIKLSTGDDVVELSSTSPEIGTVKEEVDANDVEGGSLKISFNSKYMMDALKAIDNDEVEVEFFGTMKPFILKPKGDDSVTQLILPIRTY
As to B1, in assay [2], the Total DNA synthesis on polydA-oligodT, lane 2 (Pol III-L with S. aureus beta; lane 1 without beta 4.4 pmol) is 30.3 pmol; the stimulation of DNA synthesis by Pol III-L on linear polydA-oligodT is 5 fold and 6 fold. Moreover, in assay [1], the Total DNA synthesis on polydA-oligodT, lane 4 (E. coli Pol III core with S. aureus beta; lane 3 without beta 5.1 pmol) amounted to 35.5 pmol and the stimulation of DNA synthesis by E. coli core on linear polydA-oligodT amounted to 5 fold.

B2: DnaE polymerase: S. pyogenes DnaE (α-small) polymerase encoded by dnaE, SEQ. ID. No. 20 (protein)
chain: MFAQLDTKTVYSFMDSLIDLNHYFERAKQFGYHTIGIMDKDNLYGAYHFIKGCQKNGLQPVLGLEIEILYQERQVLLNLIAQNTQGYHQLLKISTAKMSGKLHMDYFCQHLEGIAVIIPSKGWSDTLVVPFDYYMGVDQYTDLSHMDSKRQLIPLRTVRYFAQDDMETLHMLHAIRDNLSLAETPVVESDQELADCQQLTAFYQTHCPQALQNLEDLVSGIYYDFDTNLKLPHFNRDKSAKQELQDLTEAGLKEKGLWKEPYQSRLLHELVIISDMGFDDYFLIVWDLLRFGRSKGYYMGMGRGSAAGSLVAYALNITGIDPVQHDLLFERFLNKERYSMPDIDIDLPDIYRSEFLRYVRNRYGSDHSAQIVTFSTFGPKQAIRDVFKRFGVPEYELTNLTKKIGFKDSLATVYEKSISFRQVINSRTEFQKAFAIAKRIEGNPRQTSIHAAGIVMSDDALTNHIPLKSGDDMMITQYDAHAVEANGLLKMDFLGLRNLTFVQKMQEKVAKDYGCQIDITAIDLEDPQTLALFAKGDTKGIFQFEQNGAINLLKRIKPQRFEEIVATTSLNRPGASDYTTNFIKRREGQEKIDLIDPVIAPILEPTYGIMLYQEQVMQIAQVYAGFTLGKADLLRRAMSKKNLQEMQKMEEDFIASAKHLGRAEETARGLFKRMEKFAGYGFNRSHAFAYSALAFQLAYFKAHYPAVFYDIMMNYSSSDYITDALESDFQVAQVTINSIPYTDKIEASKIYMGLKNIKGLPRDFAYWIIEQRPFNSVEDFLTRTPEKYQKKVFLEPLIKIGLFDCFEPNRKKILDNLDGLLVFVNELGSLFSDSSFSWVDTKDYSVTEKYSLEQEIVGVGMSKHPLIDIAEKSTQTFTPISQLVKESEAVVLIQIDSIRIIRTKTSGQQMAFLSVNDTKKKLDVTLFPQEYAIYKDQLKEGEFYYLKGRIKERDHRLQMVCQQVQMAISQKYWLLVENHQFDSQISEILGAFPGTTPVVIHYQKNKETIALTKIQVTENLKEKLRPFVLKTVFR
As to B2, the “Speed of primer extension” value in assay [3] was “at least 60 nucleotides/s”. The “Time to complete M13mp18 primed ssDNA template” value in assay [3] (absence of β, presence of τδδ′) is at most 2 min.
